Measured values published in patent US20120058906A1 (published 2012).
Positions count from the first letter of the chain named. Blank lines part the entries; values can stand above or below the binder they belong to.

Legend:
[1] = target: T1, rHuman Erythropoietin R/Fc Chimera, CF (R&D Systems Cat#963-ER) (human, UniProt P19235 25-250); experiment: ECL (MSD multi-spot), antigen on plate, Fab 5 nM
T1 construct: Bought Fc chimera; also called EPO R/Fc; Epo R; not shown: Fc of the bought chimera
T1 sequence: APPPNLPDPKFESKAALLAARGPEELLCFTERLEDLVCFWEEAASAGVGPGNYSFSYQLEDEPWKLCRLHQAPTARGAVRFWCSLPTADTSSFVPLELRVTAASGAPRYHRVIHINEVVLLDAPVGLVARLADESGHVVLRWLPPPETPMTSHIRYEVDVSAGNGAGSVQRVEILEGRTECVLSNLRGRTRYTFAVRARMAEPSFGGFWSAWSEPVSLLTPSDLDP

[2] = target: T2, rHuman EGF R/Fc Chimera, CF (R&D Systems Cat#344-ER) (human, UniProt P00533 25-645); experiment: ECL (MSD multi-spot), antigen on plate, Fab 5 nM
T2 construct: Bought Fc chimera; also called ErbB-1; not shown: Fc of the bought chimera

[3] = target: T3, rHuman CD44/Fc Chimera, CF (R&D Systems Cat#3660-CD) (human, UniProt P16070 21-220); experiment: ECL (MSD multi-spot), antigen on plate, Fab 5 nM
T3 construct: Bought Fc chimera; not shown: Fc of the bought chimera

[4] = target: T4, rHuman IGF-1 sR (insulin-like growth factor-1 soluble receptor), CF (R&D Systems Cat#391-GR) (human, UniProt P08069 31-932); experiment: ECL (MSD multi-spot), antigen on plate, Fab 500 nM
T4 construct: Bought soluble receptor; also called IGF-R1

[5] = target: T5, rHuman P-Cadherin/Fc Chimera, CF (R&D Systems Cat#861-PC) (human, UniProt P22223 108-654); experiment: ECL (MSD multi-spot), antigen on plate, Fab 500 nM
T5 construct: Bought Fc chimera; also called CDH3; not shown: Fc of the bought chimera

[6] = target: T1, rHuman Erythropoietin R/Fc Chimera, CF …; experiment: ECL (MSD multi-spot), antigen on plate, Fab 500 nM
[7] = target: T6, Recombinant Human DLL4 (R&D Systems Cat#1506-D4/CF) (human, UniProt Q9NR61 27-524); experiment: ECL (MSD multi-spot), antigen on plate, Fab 500 nM
T6 construct: Bought recombinant protein; also called delta-like protein 4

[8] = target: T7, rHuman ErbB2/Fc Chimera, CF (R&D Systems Cat#1129-ER) (human, UniProt P04626 23-652); experiment: ECL (MSD multi-spot), antigen on plate, Fab 500 nM
T7 construct: Bought Fc chimera; also called HER2/neu; not shown: Fc of the bought chimera

[9] = target: T2, rHuman EGF R/Fc Chimera, CF (R&D …); experiment: ECL (MSD multi-spot), antigen on plate, Fab 500 nM
[10] = target: T8, rHuman HGF R/c-MET/Fc Chimera, CF (R&D Systems Cat#358-MT/CF) (human, UniProt P08581 25-932); experiment: ECL (MSD multi-spot), antigen on plate, Fab 500 nM
T8 construct: Bought Fc chimera; also called HGF R/Fc; not shown: Fc of the bought chimera

[11] = target: T9, rHuman Notch-1/Fc Chimera, CF (R&D Systems Cat#3647-TK) (human, UniProt P46531 19-526); experiment: ECL (MSD multi-spot), antigen on plate, Fab 500 nM
T9 construct: Bought Fc chimera; not shown: Fc of the bought chimera

[12] = target: T3, rHuman CD44/Fc Chimera, CF (R&D Systems …); experiment: ECL (MSD multi-spot), antigen on plate, Fab 500 nM
[13] = target: T4, rHuman IGF-1 sR (insulin-like growth …); experiment: ECL (MSD multi-spot), antigen on plate, Fab 0.4 nM;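 further: blank spot per well as comparator with Hit at signal to blank ratio of 4 or more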
[14] = target: T5, rHuman P-Cadherin/Fc Chimera, CF (R&D …); experiment: ECL (MSD multi-spot), antigen on plate, Fab 0.4 nM;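 further: blank spot per well as comparator with Hit at signal to blank ratio of 4 or more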
[15] = target: T1, rHuman Erythropoietin R/Fc Chimera, CF …; experiment: ECL (MSD multi-spot), antigen on plate, Fab 0.4 nM;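 further: blank spot per well as comparator with Hit at signal to blank ratio of 4 or more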
[16] = target: T6, Recombinant Human DLL4 (R&D Systems …); experiment: ECL (MSD multi-spot), antigen on plate, Fab 0.4 nM;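 further: blank spot per well as comparator with Hit at signal to blank ratio of 4 or more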
[17] = target: T7, rHuman ErbB2/Fc Chimera, CF (R&D …); experiment: ECL (MSD multi-spot), antigen on plate, Fab 0.4 nM
[18] = target: T2, rHuman EGF R/Fc Chimera, CF (R&D …); experiment: ECL (MSD multi-spot), antigen on plate, Fab 0.4 nM
[19] = target: T8, rHuman HGF R/c-MET/Fc Chimera, CF (R&D …); experiment: ECL (MSD multi-spot), antigen on plate, Fab 0.4 nM
[20] = target: T9, rHuman Notch-1/Fc Chimera, CF (R&D …); experiment: ECL (MSD multi-spot), antigen on plate, Fab 0.4 nM
[21] = target: T3, rHuman CD44/Fc Chimera, CF (R&D Systems …); experiment: ECL (MSD multi-spot), antigen on plate, Fab 0.4 nM

ECL signal [1]: 3580 ECL signal
ECL signal [2]: 2980 ECL signal
ECL signal [3]: 2760 ECL signal
ECL signal [4]: 747 ECL signal
ECL signal [5]: 1200 ECL signal
ECL signal [6]: 1270 ECL signal
ECL signal [7]: 106000 ECL signal
ECL signal [8]: 596 ECL signal
ECL signal [9]: 758 ECL signal
ECL signal [10]: 841 ECL signal
ECL signal [11]: 689 ECL signal
ECL signal [12]: 604 ECL signal
B1: Fab VH1-46_IGHD6-6*01_IGHJ1*01_S102A_S103P_S104Y_H111Y & L6_IGKJ1*01 (Fab, V domains shown)
VH: QVQLVQSGAEVKKPGASVKVSCKASGYTFTSYYMHWVRQAPGQGLEWMGIINPSGGSTSYAQKFQGRVTMTRDTSTSTVYMELSSLRSEDTAVYYCAREEYAPYSAEYFQYWGQGTLVTVSS
VL: not shown
notes: Fab made in E. coli; The heavy chain also carries CH1 with Flag and His tags from Plasmid A, and the light chain carries kappa CL from Plasmid C

ECL signal [13]: 65 ECL signal
ECL signal [14]: 151 ECL signal
ECL signal [15]: 217 ECL signal
ECL signal [16]: 1260 ECL signal
ECL signal [17]: 159 ECL signal
ECL signal [18]: 175 ECL signal
ECL signal [19]: 119 ECL signal
ECL signal [20]: 197 ECL signal
ECL signal [21]: 190 ECL signal
B2: Fab VH1-46_IGHD6-6*01_IGHJ1*01_S102A_S103P_S104F & L6_IGKJ1*01_S31K (Fab, V domains shown)
VH: B1 VH with Y104F, Y111H
VL: EIVLTQSPATLSLSPGERATLSCRASQSVSKYLAWYQQKPGQAPRLLIYDASNRATGIPARFSGSGSGTDFTLTISSLEPEDFAVYYCQQRSNWPPWTFGQGTKVEIKR
notes: Fab
